Conditions in all cases: 20 nM; 72 h
Data set [1] relates to MCF10A. The experiment in a line: percent viability (nuclei count relative to siNT); higher = more viable cells. The protocol: (§1)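 After 72 h, cells were fixed and stained with Hoechst and anti-fibrillarin, and nucleoli per nucleus were counted with CellProfiler. Values are plate-adjusted percent effect for the one-nucleolus and 5+ nucleoli phenotypes, normalised to siNT (0%) and to the positive controls siNOL11 or siKIF11 (100%), as the mean of biological triplicates. Percent viability is the nuclei count relative to siNT.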

The subject of data set [2] is MCF10A. The experiment in a line: one-nucleolus phenotype percent effect (relative to siNT 0% and siNOL11 100%); higher = more cells with one nucleolus (ribosome biogenesis inhibition). How it is done:
as §1

The subject of data set [3] is MCF10A. Briefly: 5+ nucleoli phenotype percent effect (relative to siNT 0% and siKIF11 100%); higher = more cells with five or more nucleoli. The protocol: as §1

As for UUGCACUCUGGCCUUCUCCCAGG [hsa-miR-7703], in the data set with MCF10A [1], the percent viability was 25%. The “one-nucleolus phenotype percent effect” value in the data set with MCF10A [2] came out at 23%. In addition, the “5+ nucleoli phenotype percent effect” value in the data set with MCF10A [3] was -11.1%.

Regarding UUGCAGCUGCCUGGGAGUGACUUC [hsa-miR-1301], in the data set with MCF10A [1], the percent viability was determined as 49%. Also, in the data set on MCF10A [2], the “one-nucleolus phenotype percent effect” value stood at 26.9%. Further, the “5+ nucleoli phenotype percent effect” value in the data set on MCF10A [3] was -32.5%.

For the sequence UUGCAGCUGCGGUUGUAAGGU [hsa-miR-5047], in the data set with MCF10A [1], the percent viability was 36.3%. Moreover, in the data set with MCF10A [2], the “one-nucleolus phenotype percent effect” value turned out to be 11.1%. Further, the “5+ nucleoli phenotype percent effect” value in the data set with MCF10A [3] was -30.3%.

Take UUGCAUAGUCACAAAAGUGAUC [hsa-miR-153]: the percent viability in the data set with MCF10A [1] turned out to be 116%. Moreover, the “one-nucleolus phenotype percent effect” value in the data set on MCF10A [2] is -31.1%. Further, the “5+ nucleoli phenotype percent effect” value in the data set with MCF10A [3] came to 83%.

As for UUGCAUAUGUAGGAUGUCCCAU [hsa-miR-448], the percent viability in the data set with MCF10A [1] was determined as 75.6%. For the same sequence, the “one-nucleolus phenotype percent effect” value in the data set with MCF10A [2] is -2.74%. Besides, in the data set with MCF10A [3], the “5+ nucleoli phenotype percent effect” value came out at 34%.

Turning to UUGCAUGUCAGAUUGUAAUUCCC [hsa-miR-4666b], the percent viability in the data set on MCF10A [1] was 64.4%. For the same sequence, the “one-nucleolus phenotype percent effect” value in the data set on MCF10A [2] stood at 5.21%. For the same sequence, in the data set on MCF10A [3], the “5+ nucleoli phenotype percent effect” value was -10.4%.

For the sequence “UUGCCACACUGCAACACCUUACA [hsa-miR-3064-3p]”, the percent viability in the data set with MCF10A [1] stood at 39.1%. Besides, the “one-nucleolus phenotype percent effect” value in the data set on MCF10A [2] was 8.14%. Also, the “5+ nucleoli phenotype percent effect” value with MCF10A [3] is -31.2%.

For the sequence UUGCCAGGGCAGGAGGUGGAA [hsa-miR-5006-5p], the percent viability with MCF10A [1] stood at 69.9%. Further, in the data set on MCF10A [2], the “one-nucleolus phenotype percent effect” value was determined as 0.389%. Besides, the “5+ nucleoli phenotype percent effect” value in the data set on MCF10A [3] is -13.7%.

Regarding UUGCCAUACAUAGACUUUAUU [hsa-miR-5590-5p], the percent viability in the data set on MCF10A [1] came to 44.8%. Moreover, the “one-nucleolus phenotype percent effect” value in the data set with MCF10A [2] was 33.6%. In the data set with MCF10A [3], the “5+ nucleoli phenotype percent effect” value was -33.2%.

Regarding UUGCCAUGUCUAAGAAGAA [hsa-miR-4659b-5p], in the data set with MCF10A [1], the percent viability worked out at 42%. The “one-nucleolus phenotype percent effect” value in the data set with MCF10A [2] was determined as 29.7%. In addition, the “5+ nucleoli phenotype percent effect” value in the data set with MCF10A [3] is -38.1%.

For the sequence UUGCCUGCCCUCUUCCUCCAG [hsa-miR-6894-3p], the percent viability in the data set with MCF10A [1] came to 24.2%. For the same sequence, the “one-nucleolus phenotype percent effect” value in the data set on MCF10A [2] is 22.3%. For the same sequence, the “5+ nucleoli phenotype percent effect” value with MCF10A [3] was -20.1%.

In the case of “UUGCUAAGUAGGCUGAGAUUGA [hsa-miR-4639-5p]”, the percent viability with MCF10A [1] came to 22.7%. In addition, the “one-nucleolus phenotype percent effect” value in the data set with MCF10A [2] worked out at 11.8%. Besides, the “5+ nucleoli phenotype percent effect” value with MCF10A [3] was -11.6%.

For the sequence “UUGCUAGUUGCACUCCUCUCUGU [hsa-miR-449c-3p]”, in the data set with MCF10A [1], the percent viability was determined as 27.2%. Besides, in the data set with MCF10A [2], the “one-nucleolus phenotype percent effect” value came out at 7.23%. In addition, the “5+ nucleoli phenotype percent effect” value with MCF10A [3] is -15.1%.

In the case of UUGCUCACUGUUCUUCCCUAG [hsa-miR-1178-3p], the percent viability with MCF10A [1] was determined as 50.3%. For the same sequence, the “one-nucleolus phenotype percent effect” value in the data set with MCF10A [2] was determined as 0.794%. The “5+ nucleoli phenotype percent effect” value with MCF10A [3] is -31.4%.

In the case of “UUGCUCCUGACUCUGUGCCCACA [hsa-miR-6772-3p]”, in the data set on MCF10A [1], the percent viability was 32.5%. The “one-nucleolus phenotype percent effect” value in the data set on MCF10A [2] worked out at 1.77%. The “5+ nucleoli phenotype percent effect” value in the data set on MCF10A [3] is -4.99%.

On to UUGCUCUGAGCUCCGAGAAAGC [hsa-miR-5691], for which the percent viability with MCF10A [1] was determined as 48.2%. In the data set on MCF10A [2], the “one-nucleolus phenotype percent effect” value was -10.3%. Further, in the data set with MCF10A [3], the “5+ nucleoli phenotype percent effect” value was -16.4%.

Take “UUGCUCUGCUCCCCCGCCCCCAG [hsa-miR-6805-3p]”: the percent viability with MCF10A [1] was 36.2%. For the same sequence, the “one-nucleolus phenotype percent effect” value with MCF10A [2] is -15.8%. In addition, the “5+ nucleoli phenotype percent effect” value with MCF10A [3] is 43.1%.

For the sequence UUGCUUGAACCCAGGAAGUGGA [hsa-miR-1273e], the percent viability in the data set with MCF10A [1] was 29%. For the same sequence, the “one-nucleolus phenotype percent effect” value in the data set with MCF10A [2] was 53.6%. Moreover, the “5+ nucleoli phenotype percent effect” value in the data set on MCF10A [3] was -48.1%.

With UUGGAAGCUUGGACCAACUAGCUG [hsa-miR-6079], the percent viability in the data set with MCF10A [1] was determined as 31.5%. For the same sequence, the “one-nucleolus phenotype percent effect” value with MCF10A [2] was 28.7%. The “5+ nucleoli phenotype percent effect” value in the data set on MCF10A [3] was -27.8%.

Regarding “UUGGAAUAGGGGAUAUCUCAGC [hsa-miR-6505-5p]”, the percent viability in the data set on MCF10A [1] amounted to 36.9%. For the same sequence, the “one-nucleolus phenotype percent effect” value in the data set with MCF10A [2] came out at 29.1%. Also, in the data set with MCF10A [3], the “5+ nucleoli phenotype percent effect” value was -46.6%.

For “UUGGACAGAAAACACGCAGGAA [hsa-miR-4520a-3p]”, the percent viability in the data set with MCF10A [1] stood at 59.1%. The “one-nucleolus phenotype percent effect” value in the data set on MCF10A [2] was -3.29%. Besides, the “5+ nucleoli phenotype percent effect” value in the data set on MCF10A [3] was -25%.

On to UUGGACGGUAAGGUUAAGCAA [hsa-miR-4804-5p], for which, in the data set with MCF10A [1], the percent viability is 35.3%. The “one-nucleolus phenotype percent effect” value in the data set on MCF10A [2] stood at 9.42%. Also, the “5+ nucleoli phenotype percent effect” value in the data set with MCF10A [3] was -12.4%.

Take “UUGGACUUUUUCAGAUUUGGGGAU [hsa-miR-5009-5p]”: the percent viability with MCF10A [1] was determined as 43.5%. Further, the “one-nucleolus phenotype percent effect” value with MCF10A [2] stood at 19.8%. Moreover, in the data set on MCF10A [3], the “5+ nucleoli phenotype percent effect” value was -5.29%.

On to UUGGAGGCGUGGGUUUU [hsa-miR-4443], for which, in the data set with MCF10A [1], the percent viability is 20.9%. Further, the “one-nucleolus phenotype percent effect” value in the data set with MCF10A [2] was 61.2%. Besides, the “5+ nucleoli phenotype percent effect” value in the data set on MCF10A [3] is -29.8%.

The values above are taken from the supplement of paper PMC10899765.
